According to patent US20240060126:

How the values were obtained:
[1] = target: MspA-((Del-G75N76/A117/D118)D56N/E59R/G77S/L88N/D90N/D91N/Q126R/D134R/E139K)8
[2] = target: MspA-((Del-L74/G75/D118/L119)D56N/E59S/L88N/D90N/D91N/Q126R/D134R/E139K)8
[3] = target: MspA-((Del-L74/G75/D118/L119)D56Y/E59R/L88N/D90N/D91N/Q126R/D134R/E139K)8
[4] = target: MspA-((Del-F80/S81/G112/V13)D56N/E59R/G75S/G77S/L88N/D90N/D91N/D118R/Q126R/D134R/E139K)8
[5] = target: MspA-((Del-L74/G75/D118/L119)D56N/L88N/D90N/D91N/Q126R/D134R/E139K)8
[6] = target: MspA-((Del-L74/G75/D118/L119)E59F/L88N/D90N/D91N/Q126R/D134R/E139K)8
[7] = target: MspA-((Del-L74/G75/D118/L119)D56L/E59L/L88N/D90N/D91N/Q126R/D134R/E139K)8
[8] = target: MspA-((Del-L74/G75/D118/L119)D56F/E59R/L88N/D90N/D91N/Q126R/D134R/E139K)8
[9] = target: MspA-((Del-L74/G75/D118/L119)G1A/D56N/E59F/L88N/D90N/D91N/Q126R/D134R/E139K)8
[10] = target: MspA-((Del-L74/G75/D118/L119)E59R/L88N/D90N/D91N/Q126R/D134R/E139K)8
[11] = target: MspA-((Del-L74/G75/D118/L119)E59N/L88N/D90N/D91N/Q126R/D134R/E139K)8
[12] = target: MspA-((Del-N79/F80N113N114)D56N/E59R/G75S/G77S/L88N/D90N/D91N/D118R/Q126R/D134R/E139K)8
[13] = target: MspA-((Del-L74/G75/D118/L119)D56N/E59Y/L88N/D90N/D91N/Q126R/D134R/E139K)8
[14] = target: MspA-((Del-L74/G75/D118/L119)E57R/E59N/L88N/D90N/D91N/Q126R/D134R/E139K)8
[15] = target: MspA-(G75S/G77S/L88N/D90N/D91N/D118R/Q126R/D134R/E139K)8

B1: T4 Dda-E94C/C109A/C136A/A360C (SEQ ID NO: 24 with mutations E94C/C109A/C136A/A360C) (protein)
chain: MTFDDLTEGQKNAFNIVMKAIKEKKHHVTINGPAGTGKTTLTKFIIEALISTGETGIILAAPTHAAKKILSKLSGKEASTIHSILKINPVTYECNVLFEQKEVPDLAKARVLICDEVSMYDRKLFKILLSTIPPWATIIGIGDNKQIRPVDPGENTAYISPFFTHKDFYQCELTEVKRSNAPIIDVATDVRNGKWIYDKVVDGHGVRGFTGDTALRDFMVNYFSIVKSLDDLFENRVMAFTNKSVDKLNSIIRKKIFETDKDFIVGEIIVMQEPLFKTYKIDGKPVSEIIFNNGQLVRIIEAEYTSTFVKARGVPGEYLIRHWDLTVETYGDDEYYREKIKIISSDEELYKFNLFLGKTCETYKNWNKGGKAPWSDFWDAKSQFSKVKALPASTFHKAQGMSVDRAFIYTPCIHYADVELAQQLLYVGVTRGRYDVFYV
Q: How did the Average Signal to Noise (S2N) [1] turn out when B1 was run?
A: 12.5

Q: What about the Mean Current Range [1] of the same protein?
A: 15.8 pA

Q: What about the Mean Noise of the Signal [1] of the same protein?
A: 1.27

Q: And the Median Current Range [1]?
A: 15.8 pA

Q: And the Median Noise of the Signal [1]?
A: 1.21

Q: And the Standard Deviation of the Current Range [1]?
A: 1.69 pA

Q: What about the Standard Deviation of the Noise of the Signal [1] of the same protein?
A: 0.24

Q: And the Average Signal to Noise (S2N) [2]?
A: 11.4

Q: What about the Mean Current Range [2] of the same protein?
A: 15 pA

Q: What about the Mean Noise of the Signal [2] of the same protein?
A: 1.31

Q: And the Median Current Range [2]?
A: 14.9 pA

Q: And the Median Noise of the Signal [2]?
A: 1.27

Q: What about the Median S2N [2] of the same protein?
A: 11.3

Q: And the Percentage of complement slipping forwards [2]?
A: 0.43%

Q: And the Standard Deviation of S2N [2]?
A: 0.29

Q: And the Standard Deviation of the Current Range [2]?
A: 1.7

Q: And the Standard Deviation of the Noise of the Signal [2]?
A: 0.23

Q: And the Average Signal to Noise (S2N) [3]?
A: 12.9

Q: What about the Mean Current Range [3] of the same protein?
A: 15.9 pA

Q: And the Mean Noise of the Signal [3]?
A: 1.24

Q: And the Median Current Range [3]?
A: 15.9 pA

Q: And the Median Noise of the Signal [3]?
A: 1.19

Q: And the Median S2N [3]?
A: 13.3

Q: What about the Percentage of complement slipping forwards [3] of the same protein?
A: 0.6%

Q: And the Standard Deviation of S2N [3]?
A: 1.12

Q: And the Standard Deviation of the Current Range [3]?
A: 1.83 pA

Q: What about the Standard Deviation of the Noise of the Signal [3] of the same protein?
A: 0.22

Q: And the Average Signal to Noise (S2N) [4]?
A: 13

Q: And the Mean Current Range [4]?
A: 17.1 pA

Q: And the Mean Noise of the Signal [4]?
A: 1.32

Q: And the Median Current Range [4]?
A: 17.1 pA

Q: What about the Median Noise of the Signal [4] of the same protein?
A: 1.22

Q: What about the Standard Deviation of the Current Range [4] of the same protein?
A: 2.11 pA

Q: And the Standard Deviation of the Noise of the Signal [4]?
A: 0.32

Q: And the Average Signal to Noise (S2N) [5]?
A: 12.3

Q: And the Mean Current Range [5]?
A: 14.7 pA

Q: What about the Mean Noise of the Signal [5] of the same protein?
A: 1.2

Q: And the Median Current Range [5]?
A: 14.6 pA

Q: And the Median Noise of the Signal [5]?
A: 1.17

Q: What about the Standard Deviation of the Current Range [5] of the same protein?
A: 1.66 pA

Q: What about the Standard Deviation of the Noise of the Signal [5] of the same protein?
A: 0.15

Q: What about the Average Signal to Noise (S2N) [6] of the same protein?
A: 11.4

Q: And the Mean Current Range [6]?
A: 15.7 pA

Q: And the Mean Noise of the Signal [6]?
A: 1.37

Q: And the Median Current Range [6]?
A: 15.7 pA

Q: What about the Median Noise of the Signal [6] of the same protein?
A: 1.33

Q: What about the Median S2N [6] of the same protein?
A: 11.8

Q: What about the Percentage of complement slipping forwards [6] of the same protein?
A: 0.3%

Q: And the Standard Deviation of S2N [6]?
A: 0.64

Q: What about the Standard Deviation of the Current Range [6] of the same protein?
A: 1.81 pA

Q: What about the Standard Deviation of the Noise of the Signal [6] of the same protein?
A: 0.22

Q: What about the “slips forward per kilobase” value [7] of the same protein?
A: less than 5 slips forward per kilobase

Q: And the Average Signal to Noise (S2N) [8]?
A: 11.7

Q: What about the Mean Current Range [8] of the same protein?
A: 15.6 pA

Q: And the Mean Noise of the Signal [8]?
A: 1.33

Q: And the Median Current Range [8]?
A: 15.6 pA

Q: And the Median Noise of the Signal [8]?
A: 1.28

Q: What about the Median S2N [8] of the same protein?
A: 12.3

Q: What about the Percentage of complement slipping forwards [8] of the same protein?
A: 0.38%

Q: And the Standard Deviation of S2N [8]?
A: 0.59

Q: What about the Standard Deviation of the Current Range [8] of the same protein?
A: 1.92 pA

Q: And the Standard Deviation of the Noise of the Signal [8]?
A: 0.24

Q: What about the “slips forward per kilobase” value [8] of the same protein?
A: less than 5 slips forward per kilobase

Q: And the “slips forward per kilobase” value [9]?
A: less than 5 slips forward per kilobase

Q: What about the Average Signal to Noise (S2N) [10] of the same protein?
A: 12.8

Q: And the Mean Current Range [10]?
A: 16.1 pA

Q: And the Mean Noise of the Signal [10]?
A: 1.26

Q: What about the Median Current Range [10] of the same protein?
A: 16.2 pA

Q: And the Median Noise of the Signal [10]?
A: 1.22

Q: What about the Standard Deviation of the Current Range [10] of the same protein?
A: 1.84 pA

Q: And the Standard Deviation of the Noise of the Signal [10]?
A: 0.24

Q: And the Average Signal to Noise (S2N) [11]?
A: 13.3

Q: And the Mean Current Range [11]?
A: 14.7 pA

Q: What about the Mean Noise of the Signal [11] of the same protein?
A: 1.11

Q: And the Median Current Range [11]?
A: 14.7 pA

Q: What about the Median Noise of the Signal [11] of the same protein?
A: 1.08

Q: What about the Standard Deviation of the Current Range [11] of the same protein?
A: 2.36 pA

Q: And the Standard Deviation of the Noise of the Signal [11]?
A: 0.19

Q: What about the Average Signal to Noise (S2N) [12] of the same protein?
A: 13.1

Q: And the Mean Current Range [12]?
A: 15.8 pA

Q: What about the Mean Noise of the Signal [12] of the same protein?
A: 1.21

Q: What about the Median Current Range [12] of the same protein?
A: 15.8 pA

Q: And the Median Noise of the Signal [12]?
A: 1.13

Q: And the Standard Deviation of the Current Range [12]?
A: 1.9 pA

Q: And the Standard Deviation of the Noise of the Signal [12]?
A: 0.28

Q: And the Average Signal to Noise (S2N) [13]?
A: 10.7

Q: What about the Mean Current Range [13] of the same protein?
A: 15.9 pA

Q: What about the Mean Noise of the Signal [13] of the same protein?
A: 1.48

Q: What about the Median Current Range [13] of the same protein?
A: 15.9 pA

Q: And the Median Noise of the Signal [13]?
A: 1.43

Q: What about the Median S2N [13] of the same protein?
A: 10.4

Q: What about the Percentage of complement slipping forwards [13] of the same protein?
A: 0.3%

Q: What about the Standard Deviation of S2N [13] of the same protein?
A: 0.66

Q: And the Standard Deviation of the Current Range [13]?
A: 1.92 pA

Q: And the Standard Deviation of the Noise of the Signal [13]?
A: 0.24

Q: What about the “slips forward per kilobase” value [13] of the same protein?
A: less than 5 slips forward per kilobase

Q: And the Average Signal to Noise (S2N) [14]?
A: 10.6

Q: And the Mean Current Range [14]?
A: 14.7 pA

Q: And the Mean Noise of the Signal [14]?
A: 1.4

Q: And the Median Current Range [14]?
A: 14.6 pA

Q: And the Median Noise of the Signal [14]?
A: 1.22

Q: What about the Standard Deviation of the Current Range [14] of the same protein?
A: 1.88

Q: And the Standard Deviation of the Noise of the Signal [14]?
A: 0.45

Q: What about the Average Signal to Noise (S2N) [15] of the same protein?
A: 11.4

Q: What about the Mean Current Range [15] of the same protein?
A: 15.5 pA

Q: And the Mean Noise of the Signal [15]?
A: 1.35

Q: And the Median Current Range [15]?
A: 15.8 pA

Q: What about the Median Noise of the Signal [15] of the same protein?
A: 1.35

Q: What about the Standard Deviation of the Current Range [15] of the same protein?
A: 2.23

Q: What about the Standard Deviation of the Noise of the Signal [15] of the same protein?
A: 0.14
